Earlier results in publication PMC4081073.

Biological target: EcoRI restriction endonuclease (Escherichia coli) (UniProt P00642)

Substance: EcoRI restriction endonuclease (from UniProt P00642)
- Kd: 100 nM
